Assay results from US20170233495A1 (CALYPSO BIOTECH, published 2017).
Like-named read-outs stand apart in the source and are kept apart here.

Key:
[1] = molecular target: Cynomologus monkey (cyno) proMMP9 (Cynomologus monkey); experiment: cell-based or functional assay
mouse proMMP9 = mouse proMMP9 (mouse, UniProt P41245 20-730); experiment: cell-based or functional assay
mouse active MMP9 = mouse active MMP9 (mouse, UniProt P41245 108-730, limits assumed); experiment: cell-based or functional assay
rat proMMP9 = rat proMMP9 (rat, UniProt P50282 20-708); experiment: cell-based or functional assay
[2] = molecular target: T1, human MMP9 (i.e. activated MMP9), catalytically active caspase-cleaved recombinant MMP9 (human, UniProt P14780 107-707); experiment: cell-based or functional assay
[3] = molecular target: T2, recombinant human proMMP9 (full length, latent form) (human, UniProt P14780 20-707); experiment: cell-based or functional assay
[4] = molecular target: T3, neutrophil-derived human dimeric MMP9 (human, UniProt P14780 20-707); experiment: cell-based or functional assay
[5] = molecular target: T4, neutrophil-derived human monomeric MMP9 (human, UniProt P14780 20-707); experiment: cell-based or functional assay
[6] = molecular target: T1, human MMP9 (i.e. activated MMP9), …; experiment: cell-based or functional assay; remark: listed apart in the source
[7] = molecular target: T5, neutrophil-derived human NGAL/MMP9 complex (human, UniProt P80188 21-198); experiment: cell-based or functional assay
[8] = molecular target: T3, neutrophil-derived human dimeric MMP9; experiment: cell-based or functional assay; remark: listed apart in the source
[9] = molecular target: T4, neutrophil-derived human monomeric MMP9; experiment: cell-based or functional assay; remark: listed apart in the source
[10] = molecular target: MMP3-activated recombinant human MMP9 (human, UniProt P14780 107-707); experiment: SPR (BIAcore), antibody captured by anti-human Fc, antigen titrated 4.7-150 nM
Method: (§1) In a second step, pro-MMP9 or MMP3-activated MMP9 were titrated from 4.7 to 150 nM in 2-fold dilutions.

[11] = molecular target: T2, recombinant human proMMP9 (full length, …); experiment: SPR (BIAcore), antibody captured by anti-human Fc, antigen titrated 4.7-150 nM; SPR (BIAcore), antibody captured by anti-human Fc, pro-MMP9 up to 150 nM; lower bound estimated from <1% binding
Method: as §1

[12] = molecular target: T5, neutrophil-derived human NGAL/MMP9 …; experiment: cell-based or functional assay; remark: listed apart in the source
[13] = molecular target: T3, neutrophil-derived human dimeric MMP9; experiment: cell-based or functional assay; remark: listed apart in the source
[14] = molecular target: T4, neutrophil-derived human monomeric MMP9; experiment: cell-based or functional assay; remark: listed apart in the source

T1 sequence (P14780 107-707): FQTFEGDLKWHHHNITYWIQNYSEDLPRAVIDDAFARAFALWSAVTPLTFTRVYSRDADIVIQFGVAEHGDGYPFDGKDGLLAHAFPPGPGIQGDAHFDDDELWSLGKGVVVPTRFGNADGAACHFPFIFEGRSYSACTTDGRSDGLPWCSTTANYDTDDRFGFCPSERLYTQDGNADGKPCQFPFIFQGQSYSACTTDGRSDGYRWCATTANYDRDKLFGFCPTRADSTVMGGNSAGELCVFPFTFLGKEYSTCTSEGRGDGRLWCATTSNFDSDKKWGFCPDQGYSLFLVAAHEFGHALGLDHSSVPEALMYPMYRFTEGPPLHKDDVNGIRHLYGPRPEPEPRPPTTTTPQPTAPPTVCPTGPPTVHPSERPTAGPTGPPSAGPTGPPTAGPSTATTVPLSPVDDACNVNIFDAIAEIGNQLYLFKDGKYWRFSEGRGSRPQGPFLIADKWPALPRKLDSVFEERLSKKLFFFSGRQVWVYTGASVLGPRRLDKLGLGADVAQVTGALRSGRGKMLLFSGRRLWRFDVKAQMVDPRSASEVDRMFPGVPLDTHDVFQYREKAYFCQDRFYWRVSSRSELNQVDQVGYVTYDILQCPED
Chain of mouse proMMP9 (P41245 20-730): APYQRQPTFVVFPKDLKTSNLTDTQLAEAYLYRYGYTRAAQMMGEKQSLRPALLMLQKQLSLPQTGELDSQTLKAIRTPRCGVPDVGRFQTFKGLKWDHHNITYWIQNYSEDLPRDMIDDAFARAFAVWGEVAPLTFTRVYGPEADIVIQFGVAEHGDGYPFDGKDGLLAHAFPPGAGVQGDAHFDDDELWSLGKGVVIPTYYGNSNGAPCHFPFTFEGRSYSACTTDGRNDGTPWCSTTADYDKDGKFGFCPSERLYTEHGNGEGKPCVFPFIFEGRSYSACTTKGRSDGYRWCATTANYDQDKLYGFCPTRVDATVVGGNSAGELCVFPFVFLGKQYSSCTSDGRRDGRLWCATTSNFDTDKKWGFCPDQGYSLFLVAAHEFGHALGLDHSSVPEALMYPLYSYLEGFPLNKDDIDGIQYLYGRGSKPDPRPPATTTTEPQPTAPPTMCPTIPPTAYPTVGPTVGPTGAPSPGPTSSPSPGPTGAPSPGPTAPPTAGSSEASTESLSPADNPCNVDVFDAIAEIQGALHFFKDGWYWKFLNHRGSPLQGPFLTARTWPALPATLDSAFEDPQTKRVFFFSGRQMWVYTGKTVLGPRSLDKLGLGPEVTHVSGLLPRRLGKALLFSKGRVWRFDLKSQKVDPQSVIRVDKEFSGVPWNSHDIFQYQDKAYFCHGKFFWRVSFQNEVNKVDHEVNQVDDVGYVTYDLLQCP
Chain of mouse active MMP9 (P41245 108-730 limits assumed): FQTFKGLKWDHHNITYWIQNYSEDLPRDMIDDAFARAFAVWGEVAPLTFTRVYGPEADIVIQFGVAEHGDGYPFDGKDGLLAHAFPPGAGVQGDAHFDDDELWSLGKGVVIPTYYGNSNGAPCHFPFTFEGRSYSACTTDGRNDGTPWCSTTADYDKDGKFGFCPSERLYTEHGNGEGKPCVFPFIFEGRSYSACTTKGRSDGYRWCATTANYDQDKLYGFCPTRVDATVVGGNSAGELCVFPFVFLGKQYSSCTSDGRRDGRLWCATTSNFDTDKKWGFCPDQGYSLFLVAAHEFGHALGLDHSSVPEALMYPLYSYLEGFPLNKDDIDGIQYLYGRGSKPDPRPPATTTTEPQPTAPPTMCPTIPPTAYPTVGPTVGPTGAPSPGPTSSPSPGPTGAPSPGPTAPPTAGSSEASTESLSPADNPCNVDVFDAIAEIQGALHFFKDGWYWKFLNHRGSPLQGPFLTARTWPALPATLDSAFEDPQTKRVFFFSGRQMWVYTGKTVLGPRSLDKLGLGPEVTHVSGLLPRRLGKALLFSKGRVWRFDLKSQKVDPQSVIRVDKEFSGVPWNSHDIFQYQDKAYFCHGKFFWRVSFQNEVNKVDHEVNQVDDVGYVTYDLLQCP
T4 sequence (P14780 20-707): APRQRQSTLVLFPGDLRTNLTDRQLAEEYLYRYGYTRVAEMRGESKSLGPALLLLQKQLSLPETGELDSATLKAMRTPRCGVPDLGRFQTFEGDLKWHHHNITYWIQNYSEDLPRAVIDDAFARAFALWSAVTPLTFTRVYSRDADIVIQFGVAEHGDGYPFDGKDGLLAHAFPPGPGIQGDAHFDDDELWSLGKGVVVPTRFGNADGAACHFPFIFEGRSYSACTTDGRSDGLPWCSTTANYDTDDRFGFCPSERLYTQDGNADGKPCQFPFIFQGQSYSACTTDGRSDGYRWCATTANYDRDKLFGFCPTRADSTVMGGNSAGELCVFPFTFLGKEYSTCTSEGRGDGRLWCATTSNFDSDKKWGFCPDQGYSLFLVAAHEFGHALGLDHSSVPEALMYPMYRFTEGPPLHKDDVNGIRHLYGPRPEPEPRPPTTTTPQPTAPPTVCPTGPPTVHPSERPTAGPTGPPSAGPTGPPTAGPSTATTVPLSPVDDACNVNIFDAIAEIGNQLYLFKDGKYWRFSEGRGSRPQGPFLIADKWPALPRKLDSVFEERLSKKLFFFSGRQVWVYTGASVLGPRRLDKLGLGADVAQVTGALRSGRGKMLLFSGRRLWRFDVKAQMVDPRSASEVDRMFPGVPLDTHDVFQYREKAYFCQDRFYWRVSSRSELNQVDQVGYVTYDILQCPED
T2 sequence (P14780 20-707): as above
T5 sequence (chain, as listed by the source limits assumed, chain 1 of 2): as the sequence (P14780 20-707) above
T5 sequence (P80188 21-198 limits assumed, chain 2 of 2): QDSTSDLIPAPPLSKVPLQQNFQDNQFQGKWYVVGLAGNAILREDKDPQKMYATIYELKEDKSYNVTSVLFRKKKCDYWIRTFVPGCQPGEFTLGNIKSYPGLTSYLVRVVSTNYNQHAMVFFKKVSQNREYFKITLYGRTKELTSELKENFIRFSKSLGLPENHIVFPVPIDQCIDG
T3 sequence (P14780 20-707): as the sequence (P14780 20-707) above
Chain of rat proMMP9 (P50282 20-708): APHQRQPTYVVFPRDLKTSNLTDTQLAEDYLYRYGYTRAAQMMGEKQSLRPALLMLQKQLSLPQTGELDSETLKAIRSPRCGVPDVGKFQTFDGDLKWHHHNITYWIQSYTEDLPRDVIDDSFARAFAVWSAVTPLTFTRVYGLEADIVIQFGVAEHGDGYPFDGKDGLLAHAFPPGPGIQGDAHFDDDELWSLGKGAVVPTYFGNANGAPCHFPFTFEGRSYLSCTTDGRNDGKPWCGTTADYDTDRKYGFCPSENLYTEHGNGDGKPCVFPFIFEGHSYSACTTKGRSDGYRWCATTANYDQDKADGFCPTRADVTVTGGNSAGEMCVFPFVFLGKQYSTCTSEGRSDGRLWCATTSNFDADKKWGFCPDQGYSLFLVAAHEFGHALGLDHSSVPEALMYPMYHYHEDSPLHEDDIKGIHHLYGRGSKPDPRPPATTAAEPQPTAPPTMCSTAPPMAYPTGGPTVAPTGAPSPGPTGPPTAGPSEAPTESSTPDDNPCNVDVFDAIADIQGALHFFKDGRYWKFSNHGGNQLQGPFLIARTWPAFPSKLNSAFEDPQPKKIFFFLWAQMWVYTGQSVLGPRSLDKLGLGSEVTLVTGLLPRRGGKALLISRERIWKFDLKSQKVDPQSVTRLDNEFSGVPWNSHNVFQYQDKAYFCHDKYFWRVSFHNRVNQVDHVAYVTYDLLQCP
Chain of MMP3-activated recombinant human MMP9 (P14780 107-707): as the sequence (P14780 107-707) above

Binder	Efficacy, MMP3/MMP9 gelatin assay [1] [%]	IC50 (nM), MMP3/MMP9 gelatin assay [1] [nM]	Efficacy, MMP3/MMP9 gelatin assay (mouse proMMP9) [%]	IC50 (nM), MMP3/MMP9 gelatin assay (mouse proMMP9) [nM]	Efficacy, MMP9 gelatin assay (mouse active MMP9) [%]	IC50 (nM), MMP9 gelatin assay (mouse active MMP9) [nM]	Efficacy, MMP3/MMP9 gelatin assay (rat proMMP9) [%]	IC50 (nM), MMP3/MMP9 gelatin assay (rat proMMP9) [nM]	Efficacy, DQ-gelatin digestion, MMP9 assay [2] [%]	IC50 (nM), DQ-gelatin digestion, MMP9 assay [2] [nM]	Efficacy, DQ-gelatin digestion, MMP3/MMP9 assay [3] [%]	IC50 (nM), DQ-gelatin digestion, MMP3/MMP9 assay [3] [nM]	further results
F20-VH-GL1/B03-VL-GL1c (antibody, human IgG4, V domains shown) VH: EVQLVESGGGLVQPGRSLRLSCAASGFTFNDYPMHWVRQAPGKGLEWVSGISSNSGSVGYADSVKGRFTISRDNAKNSLYLQMNSLRAEDTALYYCARDKIYYGSGSYDFYYYYGMDVWGQGTTVTVSS VL: SSELTQDPAVSVALGQTVRITCQGDSLRSYYASWYQQKPGQAPVVVIYGKNNRPSGIPDRFSGSSSGNTVSLTITGAQAEDEADYYCQSRDNIGNHRVVLFGGGTKLTVL	100	3.85	25	38.8	100	333	100	4.99	100	1.92	100	9.05	
F20-VH-GL1-V1-V9/B08-VL-GL6c (antibody, human IgG4 S228P, V domains shown) VH: EVQLVESGGGLVQPGRSLRLSCAASGFTFNDYPMHWVRQAPGKGLEWVSGISSQSGSVGYAESVKGRFTISRDNAKNSLYLQMNSLRAEDTALYYCARDKIYYGSGSYDFYYYYGMDVWGQGTTVTVSS VL: QSALTQPASVSGSPGQSITISCTGTSNDVGAYNRVSWYQQHPGKAPKLMIYGVSNRPSGVSNRFSGSKSGNTASLTISGLQAEDEADFYCTSYSSSTTSYVVFGGGTKVTVL	100	15.8	100	7.69	100	1.2	100	7.77	100	2.64	100	23.7	
F20-VH-GL1-V1-V9-V14/B03-VL-GL1c (antibody, human IgG4 S228P, V domains shown) VH: EVQLVESGGGLVQPGRSLRLSCAASGFTFNDYPMHWVRQAPGKGLEWVSGISSQSGSVGYAESVKGRFTISRDNAKNSLYLQMNSLRAEDTALYYCARDKIYYGSGSYDFYYYYGIDVWGQGTTVTVSS VL: SSELTQDPAVSVALGQTVRITCQGDSLRSYYASWYQQKPGQAPVVVIYGKNNRPSGIPDRFSGSSSGNTVSLTITGAQAEDEADYYCQSRDNIGNHRVVLFGGGTKLTVL	100	12.5		> 500		> 500	100	8.82	100	3.16	100	15.2	
F20-VH-GL1-V4-V9/B08-VL-GL6c (antibody, human IgG4 S228P, V domains shown, The light chain constant region is not tied to it; also called F20-VH/B08-VLc variant; F20-VH/B08-VLc) VH: EVQLVESGGGLVQPGRSLRLSCAASGFTFNDYPMHWVRQAPGKGLEWVSGISSRSGSVGYAESVKGRFTISRDNAKNSLYLQMNSLRAEDTALYYCARDKIYYGSGSYDFYYYYGMDVWGQGTTVTVSS VL: QSALTQPASVSGSPGQSITISCTGTSNDVGAYNRVSWYQQHPGKAPKLMIYGVSNRPSGVSNRFSGSKSGNTASLTISGLQAEDEADFYCTSYSSSTTSYVVFGGGTKVTVL	100	5.86	100	7.8	100	1.27	100	3.16	100	0.97	100	9.52	IC50 (read off the curve) [4]: ~10 nM; IC50 (read off the curve) [5]: ~10 nM; IC50, DQ-gelatin digestion, MMP9 assay with highly purified activated MMP9 [6]: 2.6 nM; efficacy of inhibition, MMP3/MMP9 assay with neutrophil-derived MMP9 [7]: 100%; efficacy of neutralisation, APMA-activated neutrophil-derived MMP9, OmniMMP RED cleavage [7]: 100%; efficacy of inhibition, MMP3/MMP9 assay with neutrophil-derived MMP9 [8]: 100%; efficacy of neutralisation, APMA-activated neutrophil-derived MMP9, OmniMMP RED cleavage [8]: 100%; efficacy of inhibition, MMP3/MMP9 assay with neutrophil-derived MMP9 [9]: 100%; efficacy of neutralisation, APMA-activated neutrophil-derived MMP9, OmniMMP RED cleavage [9]: 100%; Kd [10]: 11.7 nM; Kd [11]: > 15000 nM; IC50 (read off the curve) [12]: ~2 nM; IC50 (read off the curve) [13]: ~0.5 nM; IC50 (read off the curve) [14]: ~2 nM
F20-VH-GL1-V4-V9-V14/B03-VL-GL1c (antibody, human IgG4 S228P, V domains shown) VH: EVQLVESGGGLVQPGRSLRLSCAASGFTFNDYPMHWVRQAPGKGLEWVSGISSRSGSVGYAESVKGRFTISRDNAKNSLYLQMNSLRAEDTALYYCARDKIYYGSGSYDFYYYYGIDVWGQGTTVTVSS VL: SSELTQDPAVSVALGQTVRITCQGDSLRSYYASWYQQKPGQAPVVVIYGKNNRPSGIPDRFSGSSSGNTVSLTITGAQAEDEADYYCQSRDNIGNHRVVLFGGGTKLTVL	100	3.75	100	462	100	164	100	2.83	100	1.3	100	5.48	
F20-VH-GL1-V1-V9-V14/B08-VL-GL6c (antibody, human IgG4 S228P, V domains shown) VH: EVQLVESGGGLVQPGRSLRLSCAASGFTFNDYPMHWVRQAPGKGLEWVSGISSQSGSVGYAESVKGRFTISRDNAKNSLYLQMNSLRAEDTALYYCARDKIYYGSGSYDFYYYYGIDVWGQGTTVTVSS VL: QSALTQPASVSGSPGQSITISCTGTSNDVGAYNRVSWYQQHPGKAPKLMIYGVSNRPSGVSNRFSGSKSGNTASLTISGLQAEDEADFYCTSYSSSTTSYVVFGGGTKVTVL	100	27.6	100	11.1	100	1.91	100	12.3	100	3.86	100	38.1	
F20-VH-GL1/B08-VL-GL6c (antibody, human IgG4, V domains shown) VH: EVQLVESGGGLVQPGRSLRLSCAASGFTFNDYPMHWVRQAPGKGLEWVSGISSNSGSVGYADSVKGRFTISRDNAKNSLYLQMNSLRAEDTALYYCARDKIYYGSGSYDFYYYYGMDVWGQGTTVTVSS VL: QSALTQPASVSGSPGQSITISCTGTSNDVGAYNRVSWYQQHPGKAPKLMIYGVSNRPSGVSNRFSGSKSGNTASLTISGLQAEDEADFYCTSYSSSTTSYVVFGGGTKVTVL	100	29.9	100	7.91	100	0.86	100	17.4	100	3.92	100	44	
F20-VH-GL1-V4-V9-V14/B08-VL-GL6c (antibody, human IgG4 S228P, V domains shown) VH: EVQLVESGGGLVQPGRSLRLSCAASGFTFNDYPMHWVRQAPGKGLEWVSGISSRSGSVGYAESVKGRFTISRDNAKNSLYLQMNSLRAEDTALYYCARDKIYYGSGSYDFYYYYGIDVWGQGTTVTVSS VL: QSALTQPASVSGSPGQSITISCTGTSNDVGAYNRVSWYQQHPGKAPKLMIYGVSNRPSGVSNRFSGSKSGNTASLTISGLQAEDEADFYCTSYSSSTTSYVVFGGGTKVTVL	100	10.8	100	12.7	100	2.37	100	6.19	100	2.92	100	20.4	
